Article PMC7235047
Where a chain is given by its changes, count along the chain named. Names and notes keep the numbering of the source.

B1: GFP-RNF168 wildtype, Q8IYW5 R57D; E143del; E144del (protein)
chain: MALPKDAIPSLSECQCGICMEILVEPVTLPCNHTLCKPCFQSTVEKASLCCPFCRRDVSSWTRYHTRRNSLVNVELWTIIQKHYPRECKLRASGQESEEVADDYQPVRLLSKPGELRREYEEEISKVAAERRASEEEENKASYIQRLLAEEEEEEKRQAEKRRRAMEEQLKSDEELARKLSIDINNFCEGSISASPLNSRKSDPVTPKSEKKSKNKQRNTGDIQKYLTPKSQFGSASHSEAVQEVRKDSVSKDIDSSDRKSPTGQDTEIEDMPTLSPQISLGVGEQGADSSIESPMPWLCACGAEWYHEGNVKTRPSNHGKELCVLSHERPKTRVPYSKETAVMPCGRTESGCAPTSGVTQTNGNNTGETENEESCLLISKEISKRKNQESSFEAVKDPCFSAKRRKVSPESSPDQEETEINFTQKLIDLEHLLFERHKQEEQDRLLALQLQKEVDKEQMVPNRQKGSPDEYHLRATSSPPDKVLNGQRKNPKDGNFKRQTHTKHPTPERGSRDKNRQVSLKMQLKQSVNRRKMPNSTRDHCKVSKSAHSLQPSISQKSVFQMFQRCTK
B2: GFP-RNF168 wildtype, Q8IYW5 E143del; E144del (protein)
chain: B1 chain with D57R

Target: γH2AX, P16104
Assay: proximity ligation assay (PLA)
Conditions: chain shown with the change, U2OS cells transfected with GFP-RNF168 wildtype and mutants, antibodies against GFP and γH2AX, 75 (wildtype), parent: est. 43, read off a plot

Binder	response (n = 53 cells (R57D/Δ143-144))	response (n = 74 cells (Δ143-144))
B1	11	–
B2	–	34
